From patent US7378234B2, “Method for isolating hepatitis C virus peptides” (Intercell AG, priority 2002, dated 2008)
“Also recorded” adds a separate entry of the source.

Tested on: HLA-B*0702 transgenic mice
Assay: Vaccination of HLA-B*0702 transgenic mice (peptide + IC31), IFN-gamma ELISpot with spleen cells and CD8+ fraction
Type: in vivo, mouse
Settings: for specific INF-γ producing T cells / HLA-B*0702 epitope in HLA-B*0702 transgenic mice (in words): peptide + IC31, whole spleen cells and CD8+ fraction
Experimental: Mouse splenocyte ELIspot assay for single cell IFN-gamma release ELISpot plates (MAHA S4510, Millipore, Germany) were rinsed with PBS (200 μl/well), coated with anti-mouse IFN-gamma mAb (clone R46A2; 100 μl/well of 5 μg/ml in 0.1 M NaHCO3, pH 9.2-9.5) and incubated overnight at 4° C. Plates were washed four times with PBS/0.1% Tween 20 and incubated with PBS/1% BSA (200 μl/well) at room temperature for 2 h to block nonspecific binding. Spleen cells from vaccinated mice were prepared and plated at 1×10^6-3×10^5 cells/well and incubated overnight at 37° C./5% CO2 either in the presence of the immunizing antigen (peptide), control peptides or with medium alone. Subsequently, plates were washed four times and incubated with biotinylated anti-mouse IFN-gamma mAb (clone AN18.17.24, 100 μl/well of 2 μg/ml in PBS/1% BSA) for 2 h at 37° C. After washing, streptavidin-peroxidase (Roche Diagnostics, Vienna, Austria) was added ( 1/5000 in PBS, 100 μl/well) and plates were incubated at room temperature for 2 additional hours. Subsequently, substrate was added to the washed plates (100 μl/well of a mixture of 10 ml 100 mM Tris pH 7.5 supplemented with 200 μl of 40 mg/ml DAB stock containing 50 μl of 80 mg/ml NiCl2 stock and 5 μl of 30% H2O2). The reaction was stopped after 20-30 minutes by washing the plates with tap water. Dried plates were evaluated with an ELISpot reader (BIOREADER 2000, BioSys, Karben, Germany).
Groups of 5 mice (HLA-A*0201-, HLA-DRB1*0401- and HLA-B*0702 transgenic mice, male, 8-14 weeks of age) were injected subcutaneous into the hind footpads with 100 μg of peptide +IC31 per mouse (50 μg per footpad). (PCT/EP01/12041, WO 02/32451 A1 and PCT/EP01/06433, WO 01/93905 A1; IC31 is a combination of the immunizer disclosed in WO 01/93905 and WO 02/32451). […]

B1: MSTNPKPQRKTKRNTNRRPQDVKFPGGGQIVGGVYLLPRRGPRLGVRATRKTSERSQPRGRRQPIPK (peptide)
peptide: MSTNPKPQRKTKRNTNRRPQDVKFPGGGQIVGGVYLLPRRGPRLGVRATRKTSERSQPRGRRQPIPK
- Immunogenicity, peptide-specific IFN-gamma-producing cells, B*0702 (HLA-B*0702 transgenic mice, splenocytes): + (immunogenic (+, less than 100 peptide-specific cells among a million splenocytes))
- specific INF-γ producing T cells / HLA-B*0702 epitope in HLA-B*0702 transgenic mice (in words): confirmed to contain human HLA-B*0702 epitopes; also recorded: HLA-B*0702 epitopes with T-cell activating capacity
- specific INF-γ producing T cells / HLA-B*0702 epitope in HLA-B*0702 transgenic mice (in words) (listed as Ipep1506): significant interferon-gamma induction
